Legend:
[1] = molecular target: ED-B fibronectin antigen protein (recombinant), bound to CNBr activated sepharose 4B (UniProt P02751); assay: ED-B sepharose column, % of total radioactivity bound; Study A; methionine 10 mg/mL; day 5
[2] = molecular target: ED-B fibronectin antigen protein (recombinant), bound to CNBr activated sepharose 4B (UniProt P02751); assay: ED-B sepharose column, % of total radioactivity bound; Study A; inositol 5 mg/mL; day 1
[3] = molecular target: ED-B fibronectin antigen protein (recombinant), bound to CNBr activated sepharose 4B (UniProt P02751); assay: ED-B sepharose column, % of total radioactivity bound; Study B3; ascorbic acid 25 mg/mL; day 1

Sequence of UniProt P02751 (P02751 1266-1356 limits assumed): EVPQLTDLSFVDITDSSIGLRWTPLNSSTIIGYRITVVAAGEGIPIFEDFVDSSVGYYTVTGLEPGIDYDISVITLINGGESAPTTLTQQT
Sequence of 131I L19-SIP (radioiodinated L19 SIP homodimer) (chain): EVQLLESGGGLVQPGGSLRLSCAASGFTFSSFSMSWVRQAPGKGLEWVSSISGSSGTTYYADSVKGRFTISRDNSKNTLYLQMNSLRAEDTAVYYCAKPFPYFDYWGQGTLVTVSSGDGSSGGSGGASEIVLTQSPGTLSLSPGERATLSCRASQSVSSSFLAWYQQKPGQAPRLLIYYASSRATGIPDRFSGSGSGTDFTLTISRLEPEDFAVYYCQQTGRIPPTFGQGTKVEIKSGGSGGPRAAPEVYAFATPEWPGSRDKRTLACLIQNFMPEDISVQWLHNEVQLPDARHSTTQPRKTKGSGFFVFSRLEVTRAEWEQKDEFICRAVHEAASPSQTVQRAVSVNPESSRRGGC
Sequence of 131I L19-SIP (radioiodinated L19 SIP homodimer) (chain): as above

## 131I L19-SIP (radioiodinated L19 SIP homodimer)
[1]
  Immunoreactivity (%): 64.2%
[2]
  Immunoreactivity (%): 87.1%
[3]
  Immunoreactivity (IR) (%): 78%
